Reference: patent US7125658B2, “Small protein that interacts with a ribonucleotide reductase subunit and uses thereof” (The Trustees of Columbia University in the City of New York, priority 1998, dated 2006)

T1: Recombinant mouse ribonucleotide reductase R2 protein (mouse, UniProt P11157 1-390)
T1 construct: also called mouse R2 protein
T1 sequence (looked up): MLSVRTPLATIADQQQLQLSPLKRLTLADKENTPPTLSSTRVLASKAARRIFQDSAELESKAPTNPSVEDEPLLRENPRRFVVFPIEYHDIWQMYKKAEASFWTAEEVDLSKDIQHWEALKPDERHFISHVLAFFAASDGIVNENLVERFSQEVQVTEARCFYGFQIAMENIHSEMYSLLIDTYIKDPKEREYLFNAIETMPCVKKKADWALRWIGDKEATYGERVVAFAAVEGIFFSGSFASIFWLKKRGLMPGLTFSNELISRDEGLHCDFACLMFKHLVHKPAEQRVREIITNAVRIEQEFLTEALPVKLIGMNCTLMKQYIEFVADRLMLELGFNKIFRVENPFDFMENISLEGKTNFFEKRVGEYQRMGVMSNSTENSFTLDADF

T2: mouse RNR (Mus musculus, UniProt P07742)
T2 construct: made in house; host or cells: E. coli BL21 (DE3)pLysS, pET3a
T2 sequence (P07742 1-792): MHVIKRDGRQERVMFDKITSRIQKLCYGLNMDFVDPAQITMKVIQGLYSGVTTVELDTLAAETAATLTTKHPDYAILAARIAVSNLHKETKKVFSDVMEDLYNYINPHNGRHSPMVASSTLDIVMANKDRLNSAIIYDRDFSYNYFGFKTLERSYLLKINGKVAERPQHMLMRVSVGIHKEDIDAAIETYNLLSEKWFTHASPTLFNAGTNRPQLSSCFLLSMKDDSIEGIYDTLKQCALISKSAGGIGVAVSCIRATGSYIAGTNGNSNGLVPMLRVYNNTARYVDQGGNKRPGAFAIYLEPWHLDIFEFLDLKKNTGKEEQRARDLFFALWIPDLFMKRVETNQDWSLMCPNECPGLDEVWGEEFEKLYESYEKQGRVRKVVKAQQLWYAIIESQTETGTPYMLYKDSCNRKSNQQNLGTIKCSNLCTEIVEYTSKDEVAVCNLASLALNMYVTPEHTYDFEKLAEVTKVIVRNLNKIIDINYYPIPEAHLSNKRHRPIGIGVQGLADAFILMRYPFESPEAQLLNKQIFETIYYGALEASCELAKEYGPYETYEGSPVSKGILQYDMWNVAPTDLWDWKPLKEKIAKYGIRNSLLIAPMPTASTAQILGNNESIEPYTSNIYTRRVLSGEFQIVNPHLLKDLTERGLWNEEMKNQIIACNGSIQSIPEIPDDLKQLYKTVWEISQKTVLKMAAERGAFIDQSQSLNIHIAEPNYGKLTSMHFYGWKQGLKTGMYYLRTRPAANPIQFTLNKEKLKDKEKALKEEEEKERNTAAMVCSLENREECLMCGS

B1: Recombinant yeast Sml1 protein (other)
chain: MQNSQDYFYAQNRCQQQQAPSTLRTVTMAEFRRVPLPPMAEVPMLSTQNSMGSSASASASSLEMWEKDLEERLNSIDHDMNNNKFGSGELKSMFNQGKVEEMDF
notes: Immobilized on the BIAcore chip in the biosensor experiments; also called YML058W product
B2: Sml1p: 104 amino acid yeast protein encoded by YML058w (SML1) that binds Rnr1 and inhibits ribonucleotide reductase; recombinant, expressed in E. coli (protein)
chain: B1 chain

Experiments:
[1] = target: T1, Recombinant mouse ribonucleotide …; experiment: BIAcore, immobilized Sml1p
[2] = target: T2, mouse RNR; experiment: in vitro mouse ribonucleotide reductase CDP assay; assay type: biochemical; conditions: 300 fold molar excess of Sml1p (36 μg), 1 μg R1, increasing R2; dependent on R1 to R2 ratio
Protocol: FIG. 13 Inhibition of mouse RNR by the Sml1p. A series of tubes containing mouse RNR (1 μg of R1 protein and the indicated amounts of R2 protein) were incubated at 37° C. for 30 minutes as described in FIG. 9 in the absence (ã) or in the presence of 36 μg of Sml1p (o).
Inhibition of mouse ribonucleotide reductase by the Sml1protein. The effects of Sml1 protein on pure recombinant mouse ribonucleotide reductase were tested in a CDP assay in the presence of ATP as a positive effector (FIG. 13). In the figure, RNR activity in the presence of a fixed amount of R1 protein, and in the presence or absence of a 300 fold molar excess of Sml1p, are plotted against increasing concentrations of the R2 protein.

Molecule	binding result [1]	inhibition of mouse RNR compared with yeast RNR [2]
B1	no binding	–
B2	–	less pronounced
